We go through 40 sequences from the nanobody polyreactivity screen of Harvey et al. (2022).

The nature of this data set: yeast display, Sf9 membrane polyspecificity reagent, FACS + sequencing; frameworks hold sequencing errors. In short, it runs like this:
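Polyreactivity labels are assigned by the sorting gate from which each nanobody was recovered. The gates were low and high (top ~1%), set on anti-HA fluorescence for expression and streptavidin fluorescence for reagent binding. Before sorting, galactose-induced (36–48 hours) yeast display cells were stained for 1 hour at 4 °C with 10% biotinylated, detergent-solubilized Sf9 membrane reagent.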
Consider “QVQLVESGGGLVQAGGSLRLSCAASGRTIRWYTMGGYRQAPGKEMELVAGISSSGGSTYYADSVKGRFTISRDNAMNTVYLQMNSLKPEDTAVYYCNAQALRLFWRYDYWGQGTQVTVSS”, for which the “polyreactivity (PSR sort gate)” value was “low polyreactivity”.
The same measure for “QVQLVESGGGLVQAGGSLRLSCAASGRIFYINAMGWYRQAPGKERELVAAITEGGVSTYYADSVKGRFTISRDNAMNTVYLQMNSLKPEDTAVYYCNTTGGTDGIVIYEYWGQGTQVTVSS”: “low polyreactivity”; for “QVQLVESGGGLVQAGGSLRLSCAASGTTFAGNAMGWYRQAPGKEREFVAAITISGGSTYYADSVKGRFTISRDNAKNTVYLQMNRLKPEDTAVYYCAADYAYYVSLPSRFVYAGYDYWGQGTQVTVSS”: “low polyreactivity”.
“QVQLVESGGGLVQAGGSLRLSCAASGRIFRYYTMGWYRQAPGKVRELVAAITRRGGITNYADSVTGRFTISRDNAKNTVYLQMNSLKPEDTAVYYCAAKSVSQGDDYWGQGTQVTVSS”: the “polyreactivity (PSR sort gate)” value is recorded as “high polyreactivity”.
The value for “QVQLVESGGGLVQAGGSLRLSCASSGSTFPEYAMGWYRQAPGKERELVAVISFGDGNTYYADSVKGRFTISRDNAKNTVYLQMNSLKPEDTAVYYCNAADDSVDQSVRTLRQYEYWGQGTQVTVSS” was “low polyreactivity”.
As for “QVQLVESGGGLVQAGGSLRLSCAASGSTFDIYAMGWYRQAPGKESELVAAISGSSTRTYYADSVKGRFTISRDNAKYTVYLQMNSLKPEDTPGYYCVGRFYERDYWGQGTQVTVSS”, the “polyreactivity (PSR sort gate)” value was “high polyreactivity”.
The same measure for “QVQLVESGVGLVQAGGSLRLSCAASGLILANYAMGWYRQAPGKERELVAAISSSGGSTYYADSVKGRFTISRDNAKNTVYLQMNSLKPEDTAVYYCAAYPLYRRRWTGDYWGQGTQVTVSS”: “high polyreactivity”; for “QVQLVDSGGGLVQAGGSLRLSCAASGFIFDVYAMGGYRQAPGKERELVAAITSGDGTNYADSVKGRFTISRDNAKNTVYFQMNSLKPEDTAVYYCAADDGVTYRGIIFSYWGQGTQVTVSS”: “low polyreactivity”.
The value for “QDQLVESGGGLVQAGGSLRLSSAGSGSIFFSYAMGWYRQAPGKEREFVAAINSDDASTYADSVKGRFTISRDNAKNTVYLQMNSLKPEDTAVYYCAASFLWSWYDYWGQGTQVTVSS” was “low polyreactivity”; that for “QVQLVESGGGLVQAGGSLRLSCAASGSTLGYNVMGCYIQAPGKERELVAAISGDGSTNYADSVKGRFTISRDNAKNTVYLQMNSLKPEDTAVYYCAARPGWFAGYEYWGQGTQVTVSS” was “low polyreactivity”; that for “QVQLVESGGGLVQAGGSLRLSCAASGFTFDINTMGWYRQAPGKERELVAAITYSGGSTYYADSVKGRFTISRDKAKNTVYLQMNSLKPEDTAVYYCATTWYFVASWYVAIYDYWGQGTQVTVSS” was “low polyreactivity”.
The same measure for “QVQLVESGGGLVQAGGSLRLSCAASGNIFFRNARGWYRQAPGKERELVAAITWSGGSTYYADSVKGRFTISRDNAKNTVFLQMNSLKPEDTAVYYCAADAGQYFTYSGDDNLDYWGQGTQVTVSS”: “low polyreactivity”.
Turning to “QVQLVESGGVLVQAGGSLRLSCAPSGFTFYRYAMGWYRQAPGKESELVAAISYSGGRTYYADSVKGRFTISCDIAKNTVYLQMNSLKPEDTAVYYCNARASYGHQGRLGYARLYYWGQGTQVTVSS”, the “polyreactivity (PSR sort gate)” value is on record as “high polyreactivity”.
As to “QVQLVESGGGLVQAGGSLRLSCAASGRTFPRYVMGWYRQAPGKERELVAAITSSGGSTYYADSVKGRFTISRDNAKNTVYLQMNSLKPEDTAVYYCAAYARPYSGPYAYRLDYWGQGTQVTVSS”, the “polyreactivity (PSR sort gate)” value is “high polyreactivity”.
Regarding “QFQLLESGGGLVQAGGSLRLICAASGFICSLYAMGWYRPAPGKERELVATINRRGTSTFYADSVKGRFTISRDNAKNTVYLQMNSLKPEDTAVYYCNAYPGAAIRSTGRYDYWGQGTQVTVSS”, the “polyreactivity (PSR sort gate)” value is recorded as “low polyreactivity”.
For “QVQLVESGGGLVQAGGSLRLSCAASGSIFGYYAMGWYRQAPGKERELVAAISSSGASTYYADSVKGRFTISRDNAKNTVYLQMNSLKPEDTAVYYCNADRRYPTRGGYWGQGTQVTVSS”, the “polyreactivity (PSR sort gate)” value was “high polyreactivity”.
The same measure for “QVQLVESGGGLVQAGGSLRLSCAASGSTFLRNVMGWYRQAPGKESELVAAISSRGGSTHYADSVKGRFTISRDNAKNSVYLQMNILKPEDTAVYYCNAERSAAQYVRAAYDYWGQGTQVTVSS”: “low polyreactivity”.
“QVQLVESGGGLVQAGGSLRLSCAASGSIFAGYAMGWYRQAPGKERELVAAISKSAGSTYYADSVKGRFTISRDNAKNTVYLQMNSLKAEDTAVYYCAARTFNTYPSYYYWGQGTQVTVSS”: the “polyreactivity (PSR sort gate)” value is listed as “high polyreactivity”.
The value for “QVQLVESGGGLVQAGGSLRLSCAASAYAMGWYRQAPGKERELVAAITVSGGSTHYADSVKGRFTISRDNAKNTVYLQMNSLKPEDTAVYYCNARYDVWYYYWGQGTQVTVSS” was “low polyreactivity”.
The same measure for “QVQLVETGGGLVQAGGSLRLSCAASGIIFFYYGMGWYRQAPGKERELVARISSGGSTNYADSVKGRFTISRDNAKNTVYLHMNSLKQEDTAVYYCAARISTRYGYWGPGTQVTVSS”: “low polyreactivity”; for “QVQLVESGGGLVQAGGSLRISCAASGSIFAKNAMGWYRQAPGKERELVAGIDFSGGSTYYADSVKGRFTISRDNAKNTVYLQMNSLKPEDTAVYYCAADWAYKYELDYWGQGTQVTVSS”: “low polyreactivity”; for “QVQLVESGGGLVQAGGSLRLSCAASGYSFYINVMGWYIQAPGKERELLAAISISGDSTYYSDSVKGRFTISRDNAKNTVYLQMNSLKPDDTALYYCAADTVSSWYYPLEDEYWGQGTQVTVSS”: “high polyreactivity”.
The value for “QVQLVESGGGLVQAGGSLRLSCAASGFTFGGYAMGCYRQAPGKESELVAAISGRGGRTYYADSVKGRFTISRDNAKNTVYLQMNSLKPEDTAVYYCAAPTNHWTRLSGDYWGQGTQVTVSS” was “high polyreactivity”.
Consider “QVQLVESGGGLVQAGGSLRLTCAASGSIFRSYAMGWYRQAPGNERELVAAISWRGGRTYYADSVKGRFTISRDNAKNTVYLQRNSLKPADTAVYYCAARKRAQQGTRDHDYWGQGTQVTVSS”, for which the “polyreactivity (PSR sort gate)” value is listed as “high polyreactivity”.
For the sequence “QVQLVESGGGLVQAGGSLRLSCAASGSIFTEYAMGWYRKAPGKERELVAVITLRGGSTYYADSVKGRFTISRDNAMNTVYLQMNSLKPEDTAVYYCAAVTLVSFWFDYWGQGTQVTVSS”, the “polyreactivity (PSR sort gate)” value was “low polyreactivity”.
The value for “QGQLEESGGGLVQAGGSLRLSCAASGFTIYRYAKGWYRQAPGKAMELVAAISNSGGSTYYADSVKGRFTISRDNAKNTVYVQMNSLKPEDTAVYYCAADPGYNVYGYYYWGQGTQVTVSS” was “high polyreactivity”.
For “QVQLEESGGGLVQAGGSLRLSCAGSGGIFDVYAIGWYRPAPGKERELVAAITASGGSTYYADSVQGRFTISRDNAKNTVYFQMNSLKPEDTAGYYCAVQGFRYHSREYDYWGQGTQVTVSS”, the “polyreactivity (PSR sort gate)” value is “low polyreactivity”.
The same measure for “QVQLVESGGGLVQAGGSLRLSCAASGSIFLVNALGWYRQAPGKERELVAAISWSGGSTYYAESVKGRFTISRDNAKNTVYLQMKSLKPEDTAVYYCAADWFAANYYVNTVSALDYWGLGTQVTVSS”: “low polyreactivity”; for “QVQLVESGGGLVQAGGSLRLSCAASGFIFYYYAMGWYRQAPGKERELVAAITSSGGSTYYADSVKGRFTISRDNAKNTVYLQMISLKPEDTAVYYCNALQYSRMDYWGQATQVTVSS”: “high polyreactivity”.
The same measure for “QVQLVESGGGLVQAGGSLRLSCAASGRTFVTNAMGWYRQAPGKERELVAAISSGDDSTYYADSVKGRFTISRDNAKNTVYLQMNSLKPEDTAVYYCAAEGYYVDYYFYFHGFDYWGQGTQVTVSS”: “high polyreactivity”; for “QVQLVESGGGLVQAGGSLRLSCAASGLTFRANDMGWYRQAPGKERELVAGITESGDSTYYADSVKGRFTISRDNAKNTVYLQMNSLKPEDTAVYYCAAGSYYWYWYRVGEWYAYEYWGQGTQVTVSS”: “low polyreactivity”.
As to “HVQLVESGGGLVQAGGSLRLSCAASGGIFRGYTMGWYRQAPGKETEFVAAITYGGGGTYYADSVKGRFTISRDNAKNTVYLQMNSLKPEDTAVYYCNADLSDVAVTDHDYWGQGTQVTVSS”, the “polyreactivity (PSR sort gate)” value is given as “low polyreactivity”.
The value for “QVQLVESGGGLVHAGGSLRLSCAASGSTLSYAMGWYRQAPGKERELVAAISRSGGSTYYADSVKGRFTISRDNAKNTVYLQMNSLKPEDTAVYYCAADPYPSYANGGYYWGQGTQVTVSS” was “high polyreactivity”; that for “QVQLVESGGGLVQAGGSLRLSCAASGRNFRRYALGLYRQAPGKERELVAAISSGGSTYYADSVKGRFTISRDNAKNTVYLQMNSLKPEDTAVYYCNAKVGAYLNYGYWGQGTQVTVSS” was “low polyreactivity”; that for “QVQLVESGGGLDQAGGSLRLSCAASGNTSPVNAMGWYRQAPGKERELVAAITQSGGSTYYADSVKGRFTISRDNAKNTVYLQMNSLKPEDTAVYYCAAPDAGWRDGGDYWGQGTQVTVSS” was “low polyreactivity”.
The same measure for “QVQLVESGRGLVQAGGSLRLSCAASGVIFSIYAMGWYRQAPGKERELVAAISTSGGSTYYADSVKGRFTISRDNAKNTVYLQMNRLKPEDTAVYYCNARRGFYWSWRGRYISGDYWGQGTQVTVSS”: “high polyreactivity”.
The value for “QVQLVESGGGLVQAGGSLRLICAASGSTFDINAMGWYRQAPGKERELVAAITWRSGRTYYADSVKGRFTISRDNAKNTVYLQMNSLKPEDTAVYYCAADDTSYYIYSYDYWGQGTQVTVSS” was “low polyreactivity”; that for “QVQLVESGGGLVQAGASLRLICAASGITFDWYGMGWYRHAPGKERELVATITGSGDSTNYADSVKGRFTISRDNAQNTVYLQMNSLKPEDTAVYYCAAPTSYDQFGYEYWGQGTIVTVSS” was “low polyreactivity”.
With “QVQLVESGGGLVQAGGSLRLSCAASGSTSYRYAMGWYRQAPGKQRELVAGITRSGGSTYYADSVKGRFTMSRDNAKNSVYLQMNSLKPEDTAVYYCAAYYSRQYVGYGYWGQGTQVTVSS”, the “polyreactivity (PSR sort gate)” value is on record as “high polyreactivity”.
On to “QVQLVESGGGLVQAGGSRRLSCAASGIIFAQYAMGWYRQAPGKERELVDSISGGGSTTNYADSVKGRFTISRDNAKNTVYLQMNSLKPEDTAVYYCAARTRRRGGIYDYWGQGTQVTVSS”, for which the “polyreactivity (PSR sort gate)” value is given as “high polyreactivity”.
